From publication PMC5066494, “Interaction between RNA helicase ROOT INITIATION DEFECTIVE 1 and GAMETOPHYTIC FACTOR 1 is involved in female gametophyte development in Arabidopsis” (Journal of Experimental Botany, 2016) come the findings set out here.

The target of this test is T1, GST-tagged GFA1 (GST-GFA1) (Arabidopsis, UniProt Q9LNC5 1-987).
T1 construct: GAMETOPHYTIC FACTOR 1 (GFA1), Arabidopsis, full-length cDNA in pGEX-4T-1; also called pGEX-4T-GFA1; source: E. coli BL21 (DE3), purified (glutathione-Sepharose 4B)
T1 sequence (looked up): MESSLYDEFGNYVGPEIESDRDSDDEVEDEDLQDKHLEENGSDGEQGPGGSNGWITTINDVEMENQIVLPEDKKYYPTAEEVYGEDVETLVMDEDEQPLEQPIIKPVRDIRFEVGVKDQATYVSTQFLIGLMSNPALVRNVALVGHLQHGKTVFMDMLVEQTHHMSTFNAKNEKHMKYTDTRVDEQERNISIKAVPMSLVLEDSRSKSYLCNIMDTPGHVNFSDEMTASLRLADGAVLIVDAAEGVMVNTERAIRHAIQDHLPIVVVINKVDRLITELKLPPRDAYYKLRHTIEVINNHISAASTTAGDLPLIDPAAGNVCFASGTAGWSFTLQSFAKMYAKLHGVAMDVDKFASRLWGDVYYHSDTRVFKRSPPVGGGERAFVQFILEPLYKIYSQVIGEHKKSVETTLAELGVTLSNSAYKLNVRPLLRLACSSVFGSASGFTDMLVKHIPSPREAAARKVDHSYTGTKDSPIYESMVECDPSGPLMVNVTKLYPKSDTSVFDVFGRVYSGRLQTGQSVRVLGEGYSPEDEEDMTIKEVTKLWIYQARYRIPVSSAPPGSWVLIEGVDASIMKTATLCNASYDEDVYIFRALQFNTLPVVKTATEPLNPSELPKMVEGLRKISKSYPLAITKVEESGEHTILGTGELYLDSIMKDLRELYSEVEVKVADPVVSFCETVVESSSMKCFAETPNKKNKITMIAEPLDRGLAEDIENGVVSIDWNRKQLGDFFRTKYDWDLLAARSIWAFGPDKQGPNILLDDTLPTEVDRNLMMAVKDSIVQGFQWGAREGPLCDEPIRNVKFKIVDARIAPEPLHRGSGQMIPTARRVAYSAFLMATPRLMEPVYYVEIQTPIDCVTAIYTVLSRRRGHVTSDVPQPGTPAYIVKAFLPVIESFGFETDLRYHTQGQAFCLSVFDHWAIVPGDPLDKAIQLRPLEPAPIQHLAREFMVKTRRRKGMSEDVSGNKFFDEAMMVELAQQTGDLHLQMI
In words: pull-down; GST or GST-GFA1 on glutathione-Sepharose 4B beads, His-RID1 added, 4 °C 1–2 h; 50mM Tris-HCl pH 7.5, 100mM NaCl; wash with 150mM NaCl, 25mM imidazole; immunoblot with anti-HIS antibody. The settings on record: both partners purified. (Immunoblotting shows a protein as a band on a membrane.)

B1: hexa-histidine-tagged RID1 (His-RID1) (natural protein, Arabidopsis, UniProt F4IE66 1-717, looked up)
chain: MPSMAQGELKSFVQNSRPNPKSPTVSPFSMRQKIAEHRRSLPIASVEKRLVEEVQKNDILIIVGETGSGKTTQLPQFLYNAGFCREGKMIGITQPRRIAAVTVAKRVAEECEVQLGQKVGYSIRFDDTTSGSTRLKYMTDGLLLREALLDPHLSRYSVIIVDEAHDRSVHTDVLLALLKKIQRTRSQPVSEKTEFGNVASQVQTTTRDANGPQQNGVLKGYQGRKLSPLKLIIMSASLDARVFSEYFGGAKAVHVQGRQFPVDILYTVHPESDYVDATLVTIFQIHFEEKPGDILVFLTGQDEIESVERLVQERLQNIPEDKRKLLPLAIFSALPSEQQMKVFAPAPTGFRKVILATNIAETSITIPGIRYVIDPGFVKARSYDPSKGMESLDVVPASKAQTLQRSGRAGREGPGKSFRLYPEREFEKLEDSTKPEIKRCNLSNIILQLKALGIDDIVGFDFIDKPSRGAIIKALAELHSLGALADDGKLENPVGYQMSRLPLEPVYSKALILANQFNCLEEMLITVAVLSVESIFYDPREKREEARTSKNHFASVEGDHLTYLSVYRESDEFLEKRKAAGSGNNIDKIMKKWCKENYVNSRSLKHARDIYRQIREHVEQIGFNVSSCGNDMLAFRRCLAASFFLKAAQRQLDGTYRALESGEVVHIHPTSVLFRAKPECVIFNELMQTSKKYIKNLTIIDSLWLSELAPHHFQTAE
notes: ROOT INITIATION … 1 (RID1), Arabidopsis, At1g26370, full-length cDNA in pET-28a-c(+); also called pET-28a-RID1; source: E. coli BL21 (DE3), purified (Ni Sepharose 6 Fast Flow)
B1: the binding result is recorded as “binds”.
